Consider one substance from EP0571387B1.

The target of this assay is c-met protooncogene product (HGF receptor) on B5/589 human mammary epithelial cells (human) (UniProt P08581). As to the kind of experiment: cell-based or functional assay.
UniProt P08581, sequence (P08581 25-1390): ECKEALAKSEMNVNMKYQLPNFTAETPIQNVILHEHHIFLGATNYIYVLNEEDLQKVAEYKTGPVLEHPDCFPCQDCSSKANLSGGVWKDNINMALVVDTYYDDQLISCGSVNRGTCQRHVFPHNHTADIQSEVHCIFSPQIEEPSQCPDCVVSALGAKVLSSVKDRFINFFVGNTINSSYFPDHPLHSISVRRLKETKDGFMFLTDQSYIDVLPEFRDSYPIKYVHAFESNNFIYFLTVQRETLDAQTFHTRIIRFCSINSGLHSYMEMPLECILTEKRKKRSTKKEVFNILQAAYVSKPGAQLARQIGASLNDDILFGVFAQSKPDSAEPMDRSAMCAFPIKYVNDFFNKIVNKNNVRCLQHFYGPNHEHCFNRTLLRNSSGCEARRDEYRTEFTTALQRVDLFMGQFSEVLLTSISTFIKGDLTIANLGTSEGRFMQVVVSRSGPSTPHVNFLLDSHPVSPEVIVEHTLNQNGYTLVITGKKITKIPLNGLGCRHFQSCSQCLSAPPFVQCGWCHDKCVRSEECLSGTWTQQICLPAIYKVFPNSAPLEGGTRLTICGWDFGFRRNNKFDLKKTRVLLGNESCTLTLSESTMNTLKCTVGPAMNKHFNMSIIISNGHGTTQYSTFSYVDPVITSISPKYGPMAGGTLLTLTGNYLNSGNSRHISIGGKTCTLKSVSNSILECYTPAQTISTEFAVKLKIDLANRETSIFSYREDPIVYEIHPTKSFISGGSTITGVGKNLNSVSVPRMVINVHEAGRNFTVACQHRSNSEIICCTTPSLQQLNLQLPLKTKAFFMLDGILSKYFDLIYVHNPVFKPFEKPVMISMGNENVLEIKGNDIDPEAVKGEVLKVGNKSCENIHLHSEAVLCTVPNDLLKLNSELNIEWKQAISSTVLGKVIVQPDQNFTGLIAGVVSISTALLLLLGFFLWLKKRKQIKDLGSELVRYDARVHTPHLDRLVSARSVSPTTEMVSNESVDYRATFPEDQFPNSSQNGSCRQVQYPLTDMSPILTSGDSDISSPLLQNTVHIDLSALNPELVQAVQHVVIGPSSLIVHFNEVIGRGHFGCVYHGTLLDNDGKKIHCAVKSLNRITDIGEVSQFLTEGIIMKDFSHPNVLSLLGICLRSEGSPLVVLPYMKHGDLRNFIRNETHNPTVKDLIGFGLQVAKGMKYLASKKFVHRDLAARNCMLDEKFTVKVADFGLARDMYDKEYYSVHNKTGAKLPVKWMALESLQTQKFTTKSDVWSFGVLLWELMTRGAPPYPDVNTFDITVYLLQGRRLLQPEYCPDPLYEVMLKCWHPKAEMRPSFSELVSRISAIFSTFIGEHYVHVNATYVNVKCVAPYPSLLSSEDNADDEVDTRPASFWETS

As for “HGF/NK2 (34 kd truncated HGF variant, naturally occurring, purified from conditioned medium of SK-LMS-1 cells) (ligand)”, the inhibition of HGF-induced [3H]-thymidine incorporation in B5/589 cells (fold molar excess over HGF) is 10 to 20.
